Assay results from paper PMC11602157, “ZNF512B binds RBBP4 via a variant NuRD interaction motif and aggregates chromatin in a NuRD complex-independent manner” (Nucleic Acids Research, 2024).

Molecular target: RBBP4, recombinant, for fluorescence polarization (human), Q09028
Assay: fluorescence polarisation; competitive: unlabeled peptide (1.0–0.0 mM series) added to preformed complex of 1 nM FAM tracer and 40 nM RBBP4; 50 mM Tris-HCl pH 7.5, 150 mM NaCl, 0.02% Triton X-100; read after 60 min; ki from IC50

Sequence of RBBP4, recombinant, for fluorescence polarization (human), Q09028 (Q09028 whole entry): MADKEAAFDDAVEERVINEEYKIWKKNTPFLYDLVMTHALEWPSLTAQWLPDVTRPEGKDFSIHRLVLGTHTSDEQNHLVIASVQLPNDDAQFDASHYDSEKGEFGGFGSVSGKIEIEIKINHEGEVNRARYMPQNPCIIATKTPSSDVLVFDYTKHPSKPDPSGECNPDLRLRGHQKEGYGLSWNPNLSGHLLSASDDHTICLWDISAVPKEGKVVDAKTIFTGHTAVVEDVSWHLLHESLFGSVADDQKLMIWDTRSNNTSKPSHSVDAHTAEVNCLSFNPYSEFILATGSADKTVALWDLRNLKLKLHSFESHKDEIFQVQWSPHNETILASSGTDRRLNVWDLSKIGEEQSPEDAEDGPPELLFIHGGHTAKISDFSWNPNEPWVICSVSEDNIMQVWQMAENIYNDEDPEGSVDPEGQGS

KHRRKQKTPKKF (modifications not checked) [ZNF512B NIM peptide (unlabeled ZNF512B iNIM)]
Ki: 19 nM
